In the supplement of paper PMC12764529:
± gives the half width of the 95% confidence interval.

Assay: folding stability dG unfold from trypsin proteolysis; higher = more stable
Method in brief: (§1)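 Only designs with AlphaFold2 dimer inter-PAE above 15 were retained; each was a mini-protein under 80 residues with no cysteine, in a PA-tagged cDNA display construct. After digestion with trypsin and chymotrypsin and sequencing, K50 was inferred by Bayesian fitting of counts, and unfolding free energy was derived per protease or combined against a sequence-predicted unfolded-state K50 and a shared folded-state K50.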

Going from “SAGGSAGGSASMSPEELAEKYREEYEKKYGIPAVEVKVEVIPEEEKYVITIKLPGSEITVIVSAGGSAGGSA [r18_145_JUSTAS]” to “SAGSVTITLNIPPGQDVTLNIGGKEATLTVDPETKVYTMTDPQTGDVWTVTVDPNSPVASVTYTAAPAGSAG [r5_302_JUSTAS]”, the “folding stability dG unfold” value falls from 15.2 ± 1.09 kJ/mol to 4.17 ± 0.163 kJ/mol.

First: SAGKKYVVVIDIEVKMPGKTKPRPIVIPVPEGETIKEQLSELPGLDNVKIKIQVIPPDQDPDFAGQPISAGG [r19_339_TrROS]
Second: SAGGMTLEELKEALKKLPPNVKEVKITVVEKNGKLVVVVEVNGKKLVIEFDSEEERKLAEELVKELLSSAGG [r13_287_TrROS_Hall]
The “folding stability dG unfold” value of the first is lower: 2.38 ± 0.669 kJ/mol for the first, 15.7 ± 1.34 kJ/mol for the second.

Compared with “SAGGSAGGSNEKKYIYRAKITIPGKEGEKPFEIEFESEEEVIELVEKLFPKENIKLEVEKFELDSAGGSAGG [r6_113_TrMRF]”, “SAGGSAGGSAGGDESYRKLLEELPLPVTEIVVETVPLPETDEPITVVTPKNPDGKEVTLGSAGGSAGGSAGG [r7_337_JUSTAS]” is lower in “folding stability dG unfold” value: 7.66 ± 0.418 kJ/mol for the first, -0.178 ± 0.155 kJ/mol for the second.

“SAGGSAGGSAGGPLIVFERNADGTLTAVAVDEETGEVTVTRVTLKDGKLTVETETLPLDESAGGSAGGSAGG [r7_28_TrROS_Hall]” and “SAGGSAKKKIKIKVKNKDGSVYELEFDEENGIVKITYKDGKKEELSVEELKKLPLPKNITEVEIVPSAGGSA [r15_1043_TrROS_Hall]” are within error of each other in “folding stability dG unfold” value: 6.23 ± 0.201 kJ/mol for the first, 6.58 ± 0.18 kJ/mol for the second.

Compared with “SAGGSAGGSAGGEPIYIRINNYYIVINLDDGNIRVYPPMKGKKKKVPANDIKPIDPGDISAGGSAGGSAGGS [r10_709_TrROS]”, “SAGGSAGGSAGGIKKGDKIKIVKVKVEKRYDKDGKLVEERIVSIEEEEIEVPSLEDLLKASAGGSAGGSAGG [r7_439_TrROS_Hall]” is lower in “folding stability dG unfold” value: 4.95 ± 0.105 kJ/mol for the first, 3.06 ± 0.586 kJ/mol for the second.

First: SAGGMTEELEITTPDNYKIKITKTLNPNTTKPTYTVKIYEKKSGKVLLEKEFSSLEEAEEFIKNGYGSAGGS [r8_450_TrMRF]
Second: SAGGSAGGSAGGSGMTLPIPLSELTTEEIRELTKPDEDLVIKTEEDEPVVIPYGEIKPESAGGSAGGSAGGS [r4_382_JUSTAS]
The “folding stability dG unfold” value of the first is higher: 19.8 ± 0.753 kJ/mol for the first, 2.9 ± 0.293 kJ/mol for the second.

Going from “SVTVDEIAEWFANSFQQHGMKDVKVDVTVEPDPKNGRVRVDVQIRMTYPNPDGEKHRFEMTIPVEIPPNDSA [r9_440_TrROS]” to “SAGGSAVTITVDDFEDIEDAEITLTRPDGRPVVARVRVEKGEGAPRVTVLWREPGSGRYRVETFPLSAGGSA [r15_1006_TrMRF]”, the “folding stability dG unfold” value falls from 8.07 ± 0.213 kJ/mol to 3.87 ± 0.31 kJ/mol.

Going from “MTPDDMKDPNGMPPEDMWMVEIYVPRRDPEDGGPKWKPVGTIFIPPGMDPEELNEIIEELPGLDLIEIYPMS [r1_132_TrROS]” to “SMKPPVVEIKAKVVEVKEVNGKLYVKVEITEIKDAPPEVKELIKEGKTILVEVKPGEEVKEGDEVTIKIVSA [r9_557_TrROS_Hall]”, the “folding stability dG unfold” value rises from 4.33 ± 0.372 kJ/mol to 10.3 ± 0.879 kJ/mol.

Compared with “SAGGSAMTPEEIRNMSLEEILKLIKEKLEKGEKVEIEITLPDGRKLRITFERLPNGEIKITIEEVDSAGGSA [r15_857_TrROS_Hall]”, “SMVTVERPESTKTIDAPPSATVEFDPATGTLRVYSPDGTATTVPLSPTWSIQPSDNSVTVTAPPASPAAPSA [r9_653_JUSTAS]” is lower in “folding stability dG unfold” value: 14.8 ± 0.837 kJ/mol for the first, 0.234 ± 0.247 kJ/mol for the second.

Compared with “SAGGKKKKVKKIKVKVKIKLKNGEEVTITEAYVLPDGTVIIKVEVTKPDGSKETKTFTIPLKDIEIESAGGS [r16_498_TrROS_Hall]”, “SAGFSITVDYEPEKGLWTVTFTSPPSTSPLSPEEVKETAREIAEKQGIKYELIEISREGNTWTMTIKVLSAG [r14_556_JUSTAS]” is higher in “folding stability dG unfold” value: 9.36 ± 0.314 kJ/mol for the first, 17.8 ± 0.753 kJ/mol for the second.

Compared with “SAGWIMINSPEDAERIVEELRKLLPPGYKIDVEPMPNGSVMIEFENPEEGREIKIHYDRRNGMYWIEPVSAG [r5_358_TrROS]”, “SAGGSKYPIEVTDPENGNPVLLEDVESLASVTQEEPGDGRSLYTATVPETGEPVFLTSPEKLAAALSSAGGS [r8_206_JUSTAS]” is lower in “folding stability dG unfold” value: 10.8 ± 0.544 kJ/mol for the first, 2.48 ± 0.146 kJ/mol for the second.

Going from “SAGGSAEVVEREEYFEEKLPNGEKVKVRRIVTEITPIPGLPGYRVEYTVTVEIGDEWETYPLEVAESAGGSA [r15_465_JUSTAS]” to “SAGGMELLGEVTVEKPGKPITFPIYRVPDEPREVVEVRELDPSTGKWTPIGTRELPPGEAERAIEELSAGGS [r8_423_JUSTAS]”, the “folding stability dG unfold” value falls from 6.42 ± 0.335 kJ/mol to 1.51 ± 0.335 kJ/mol.

“SAGGSAGGSAGGEDLKINIKISEITFSPDGWITMSMRGGNGRWFQHTIKVKIKLPPGDPSAGGSAGGSAGGS [r10_281_TrROS]” and “SAGGSAGGKEKLIVKIKIEKKVKLENGEEKKVKKTIVVEMTPEEVKELLKKLKKENVTEVEIFPSAGGSAGG [r6_984_TrROS_Hall]” are within error of each other in “folding stability dG unfold” value: 11.6 ± 0.586 kJ/mol for the first, 11.3 ± 0.711 kJ/mol for the second.

Going from “SAGGSAGGPLRIEIEIKIEIFPFPDGWYLIRMTIKIKVYNPGEDGQPIAEYEITFYFIIPPGDFSAGGSAGG [r6_60_TrROS]” to “SAGMLDVPDDAEITVLVSLEKVPLPGDSSERVLAGVVKLKVKTLPNGEQVIESAEIKIVSAEELKKAGLSAG [r5_340_TrMRF]”, the “folding stability dG unfold” value falls from 17.8 ± 0.711 kJ/mol to 5.63 ± 0.159 kJ/mol.

Compared with “SAGGSAGGMNPTVTPVEVDVGDKPLTVFLFGDGTALVLFPDGGLAGAPVGTPDDRPVNLAIIGPSAGGSAGG [r6_239_TrMRF]”, “SAGGSAGGSADNKPFKVEIDVEHHPPNGYYRVTIEWPDGREIVVWMPGNPDEAKDQAKELISAGGSAGGSAG [r3_143_TrROS]” is higher in “folding stability dG unfold” value: 3.71 ± 0.155 kJ/mol for the first, 5.37 ± 0.167 kJ/mol for the second.

With “SAGGSAGGSFEILEVHPVKDGWLMIVVRTPGKMKVITIPPDDLDEIPGLDDIAIFPVKDGEPISAGGSAGGS [r12_343_TrROS]” the “folding stability dG unfold” value was 5.35 ± 0.205 kJ/mol.

Assay: folding stability dG unfold from chymotrypsin proteolysis; higher = more stable
Method in brief: as §1

First: SAGGSAGGSASMSPEELAEKYREEYEKKYGIPAVEVKVEVIPEEEKYVITIKLPGSEITVIVSAGGSAGGSA [r18_145_JUSTAS]
Second: SAGSVTITLNIPPGQDVTLNIGGKEATLTVDPETKVYTMTDPQTGDVWTVTVDPNSPVASVTYTAAPAGSAG [r5_302_JUSTAS]
The “folding stability dG unfold” value of the first is higher: 11.5 ± 0.372 kJ/mol for the first, 6.56 ± 0.628 kJ/mol for the second.

First: SAGKKYVVVIDIEVKMPGKTKPRPIVIPVPEGETIKEQLSELPGLDNVKIKIQVIPPDQDPDFAGQPISAGG [r19_339_TrROS]
Second: SAGGMTLEELKEALKKLPPNVKEVKITVVEKNGKLVVVVEVNGKKLVIEFDSEEERKLAEELVKELLSSAGG [r13_287_TrROS_Hall]
The “folding stability dG unfold” value of the first is lower: 7.37 ± 0.711 kJ/mol for the first, 13.1 ± 0.669 kJ/mol for the second.

Compared with “SAGGSAGGSNEKKYIYRAKITIPGKEGEKPFEIEFESEEEVIELVEKLFPKENIKLEVEKFELDSAGGSAGG [r6_113_TrMRF]”, “SAGGSAGGSAGGDESYRKLLEELPLPVTEIVVETVPLPETDEPITVVTPKNPDGKEVTLGSAGGSAGGSAGG [r7_337_JUSTAS]” is lower in “folding stability dG unfold” value: 10.5 ± 0.502 kJ/mol for the first, -2.33 ± 0.351 kJ/mol for the second.

Going from “SAGGSAGGSAGGPLIVFERNADGTLTAVAVDEETGEVTVTRVTLKDGKLTVETETLPLDESAGGSAGGSAGG [r7_28_TrROS_Hall]” to “SAGGSAKKKIKIKVKNKDGSVYELEFDEENGIVKITYKDGKKEELSVEELKKLPLPKNITEVEIVPSAGGSA [r15_1043_TrROS_Hall]”, the “folding stability dG unfold” value rises from 7.614 ± 0.0711 kJ/mol to 10.8 ± 0.151 kJ/mol.

“SAGGSAGGSAGGEPIYIRINNYYIVINLDDGNIRVYPPMKGKKKKVPANDIKPIDPGDISAGGSAGGSAGGS [r10_709_TrROS]” and “SAGGSAGGSAGGIKKGDKIKIVKVKVEKRYDKDGKLVEERIVSIEEEEIEVPSLEDLLKASAGGSAGGSAGG [r7_439_TrROS_Hall]” are within error of each other in “folding stability dG unfold” value: 3.4 ± 0.297 kJ/mol for the first, 3.09 ± 0.251 kJ/mol for the second.

Compared with “SAGGMTEELEITTPDNYKIKITKTLNPNTTKPTYTVKIYEKKSGKVLLEKEFSSLEEAEEFIKNGYGSAGGS [r8_450_TrMRF]”, “SAGGSAGGSAGGSGMTLPIPLSELTTEEIRELTKPDEDLVIKTEEDEPVVIPYGEIKPESAGGSAGGSAGGS [r4_382_JUSTAS]” is lower in “folding stability dG unfold” value: 19.23 ± 0.176 kJ/mol for the first, -4.41 ± 1.26 kJ/mol for the second.

Compared with “SVTVDEIAEWFANSFQQHGMKDVKVDVTVEPDPKNGRVRVDVQIRMTYPNPDGEKHRFEMTIPVEIPPNDSA [r9_440_TrROS]”, “SAGGSAVTITVDDFEDIEDAEITLTRPDGRPVVARVRVEKGEGAPRVTVLWREPGSGRYRVETFPLSAGGSA [r15_1006_TrMRF]” is lower in “folding stability dG unfold” value: 8.09 ± 0.314 kJ/mol for the first, 6.23 ± 0.418 kJ/mol for the second.

With “MTPDDMKDPNGMPPEDMWMVEIYVPRRDPEDGGPKWKPVGTIFIPPGMDPEELNEIIEELPGLDLIEIYPMS [r1_132_TrROS]” the “folding stability dG unfold” value was 5.95 ± 0.18 kJ/mol.
